# Where a SMILES comes first, the peptide text is derived from it. Where no end group is shown, it is not given here. Side-chain parts run from the residue outwards. Texas Red = Texas Red: fluorescent dye
# Key:
# [1] = Solubility of peptides and fluorescent peptide conjugates in aqueous buffer; type: physicochemical
# protein kinase A (PKA) = molecular target: T1, protein kinase A (PKA) (Bos taurus, UniProt P00517); assay: Protein kinase A phosphorylation assay (PepTag assay kit), agarose gel electrophoresis readout; type: biochemical
# T1 construct: purchased Promega (Madison, WI)
# Procedure: The fluorescent peptides were assayed with protein kinase A (PKA) using the PepTag assay kit from Promega (Madison, WI). The concentrations of the peptides in the assay were 60 μM, and the concentration of ATP was 1 mM. After completion of the assay the 25 μL reaction mixtures were spiked with 5 μL of 50% glycerol and submitted to gel electrophoresis in a 0.8% horizontal agarose slab in 50 mM TRIS HCl, pH 8.0. The gels were imaged with a fluorescence imager. The results appear in FIG. 1. The Lissamine Kemptide reaction mixtures (− & + kinase) are included as controls. It is clear that both isomers of N-(TXR)LRRASLG [SEQ. ID NO.
# SRC Kinase [2] = molecular target: T2, SRC Kinase (Homo sapiens, UniProt P12931); assay: SRC kinase assay of fluorescent peptidic substrates, agarose gel electrophoresis readout; type: biochemical; conditions: for substrate of SRC kinase (FIG. 4): peptide 20 μM, 10 units SRC kinase, 1 h at room temperature
# Procedure: An assay of the fluorescent peptidic substrate was performed in the presence of SRC Kinase. The peptide concentration was 10 μM, and the ATP concentration was 100 μM. The reaction proceeded in a buffer comprising 25 mM sodium (N-[2-hydroxyethyl]piperazine-N′-[2-ethanesulfonate]), 20 mM magnesium chloride, pH 7.4 for 90 min at room temperature, and the reaction mixture was submitted to gel electrophoresis in a 0.8% agarose slab at pH 8.0. Nearly 75% conversion of the substrate to product took place, and the substrate and product migrated in opposite directions. The results appear in FIG. 3.
# A kinase assay was performed with each of these peptides as substrates. The concentrations of the Ac-C-[S-(BTR-Jeff)]EEFIYGAFKKKK [SEQ. ID NO. 3] and Ac-C-[S-(BTR-Jeff)]EEFIYGAFRRRR [SEQ. ID NO. 4] were 20 μM, respectively. The ATP concentration in each reaction was 100 μM, and 10 units of SRC kinase were added per reaction. The reactions proceeded at room temperature for 1 h. The reaction mixtures were spiked with 50% glycerol to give a final concentration of 10%. The samples (25 μL) were submitted to gel electrophoresis on a 0.8% agarose slab in 50 mM TRIS HCl, pH 8.0.
# The SRC substrate Ac-C-[S-(TXR-Jeff)]EEFIYGAFKKKK [SEQ. ID NO. 5] was prepared and assayed as described by the method in Example 5 with the exceptions that TXR-Jeffamine-BAA was used as the fluorophore and the assay was allowed to proceed overnight. The results of the assay appear in FIG. 5. The anode is to the left and the cathode to the right. N-(TXR)-LRRASLG [SEQ. ID NO. 11] (Texas Red labeled Kemptide) and its phosphorylated derivative were included as mobility standards.
# SRC Kinase [3] = molecular target: T2, SRC Kinase; conditions: screen done by investigators at Selectide; cited from earlier work
# [4] = test system: T3, C-[S-(TXR-Jeff)]EEEFIYGAFKKKK
# T3 sequence: CEEEFIYGAFKKKK
# [5] = test system: T4, conjugate comprising just the BODIPY630/650 and Kemptide
# T4 sequence: LRRASLG
molecule,measurement,setting,value
CC[C@H](C)[C@H](NC(=O)[C@H](Cc1ccccc1)NC(=O)[C@H](C)NC(=O)[C@H](C)NC(=O)[C@@H](N)CS)C(=O)N[C@@H](Cc1ccc(O)cc1)C(=O)NCC(=O)N[C@@H](C)C(=O)N[C@@H](Cc1ccccc1)C(=O)N[C@@H](CCCCN)C(=O)O [CAAFIYGAFK] (H-CAAFIYGAFK-OH; N-terminus and C-terminus assumed),solubility,[1],Insolubility
"(BODIPY-PEG)-labeled Kemptide: BODIPY630/650 coupled to Kemptide LRRASLG through a 3,400 molecular weight PEG spacer (not fully specified; also: BODIPY630/650 label, attachment site not given here)","phosphorylation by Protein Kinase A (Example 3, FIG. 2)",protein kinase A (PKA),successfully phosphorylated
Ac-C-[S-(BTR-Jeff)]EEFIYGAFKKKK: BODIPY TR-Jeffamine ED-900 conjugate of N-acetylated peptide Ac-CEEFIYGAFKKKK (Ac-C([Jeffamine ED‑900-BODIPY TR])EEFIYGAFKKKK),substrate of SRC kinase (FIG. 4),SRC Kinase [2]; ATP 100 μM,is a substrate of SRC kinase
Ac-C-[S-(BTR-Jeff)]EEFIYGAFRRRR: BODIPY TR-Jeffamine ED-900 conjugate of N-acetylated peptide Ac-CEEFIYGAFRRRR (Ac-C([Jeffamine ED‑900-BODIPY TR])EEFIYGAFRRRR),quality/reactivity as substrate for SRC kinase (in words),SRC Kinase [2],did not result in a sufficiently reactive substrate
same,substrate of SRC kinase (FIG. 4),SRC Kinase [2]; ATP 100 μM,is not
same,solubility,[1],much lower
Ac-C-[S-(TXR-Jeff)]EEFIYGAFKKKK: Texas Red-Jeffamine ED-900 conjugate of N-acetylated peptide Ac-CEEFIYGAFKKKK (Example 6) (Ac-C([Jeffamine ED‑900-Texas Red])EEFIYGAFKKKK),quality/reactivity as substrate for SRC kinase (in words),SRC Kinase [2],good reactivity
C-[S-(TXR-Jeff)]EEEFIYGAFKKKK: Texas Red linked through a Jeffamine ED-900 PEG spacer to the cysteine thiol of peptide CEEEFIYGAFKKKK; SRC kinase substrate (C([Jeffamine ED‑900-Texas Red])EEEFIYGAFKKKK),quality/reactivity as substrate for SRC kinase (in words),SRC Kinase [2],good substrate
same,Km,SRC Kinase [2]; fluorescent peptide as substrate for SRC Kinase,8.5 µM
same,conversion of the substrate to product,"SRC Kinase [2]; peptide 10 μM, ATP 100 μM, pH 7.4, 90 min at room temperature",~75%
FIYGAFK (Test Substrate Sequence),active substrate of SRC Kinase in resin-bound peptide library screen,SRC Kinase [3],active substrate
N-(TXR)LRRASLG: Texas Red-X labeled Kemptide prepared for comparison (Example 1) ({Texas Red‑X}-LRRASLG),substrate for PKA (FIG. 1),"protein kinase A (PKA); peptide 60 μM, ATP 1 mM",substrates for PKA
SRC kinase,Km (kinase assay),[4],Km=8.5 µM
same,"conversion of the substrate to product (kinase assay, agarose gel electrophoresis)",[4],Nearly 75% conversion of the substrate to product took place
"conjugate comprising just the BODIPY630/650 and Kemptide: BODIPY630/650 coupled to Kemptide LRRASLG without PEG spacer (also: BODIPY630/650 coupled without spacer, site not given here) [reference compound]",solubility,[1],so low
same,"phosphorylation by Protein Kinase A (Example 3, FIG. 2)",protein kinase A (PKA),could not phosphorylate
protein kinase A (PKA),phosphorylation,[5],its solubility was so low that Protein Kinase A could not phosphorylate it
